From patent US20240239878A1

What was measured:
[1] = target: human DLL3 on SHP-77 cells (human) (UniProt Q9NYJ7); experiment: flow cytometry, SHP-77 cells
[2] = target: Cynomolgus monkey DLL3 on HEK293 cells (HEK293-cyno DLL3) (Cynomolgus monkey); experiment: flow cytometry, HEK293-cyno DLL3 cells
Chain of Cynomolgus monkey DLL3 on HEK293 cells (HEK293-cyno DLL3) (Cynomolgus monkey) (Q9NYJ7 other isoform, or with tags, fused parts or gaps): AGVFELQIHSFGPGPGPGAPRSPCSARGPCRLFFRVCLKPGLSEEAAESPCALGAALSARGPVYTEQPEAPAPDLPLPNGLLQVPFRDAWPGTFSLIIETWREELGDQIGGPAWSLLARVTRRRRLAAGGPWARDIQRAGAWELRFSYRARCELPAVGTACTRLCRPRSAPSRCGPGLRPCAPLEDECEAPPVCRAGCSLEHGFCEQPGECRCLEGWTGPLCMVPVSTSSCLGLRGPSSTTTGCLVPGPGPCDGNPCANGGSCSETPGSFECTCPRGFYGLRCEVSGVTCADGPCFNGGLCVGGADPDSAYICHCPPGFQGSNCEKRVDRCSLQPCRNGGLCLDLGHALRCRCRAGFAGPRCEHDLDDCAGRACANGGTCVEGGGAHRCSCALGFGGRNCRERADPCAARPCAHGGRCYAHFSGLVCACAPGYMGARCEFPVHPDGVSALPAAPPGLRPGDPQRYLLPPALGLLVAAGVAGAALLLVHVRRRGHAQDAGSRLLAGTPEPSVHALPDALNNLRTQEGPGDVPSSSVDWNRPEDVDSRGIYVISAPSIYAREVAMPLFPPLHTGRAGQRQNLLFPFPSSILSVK

Chain of human DLL3 on SHP-77 cells (human) (Q9NYJ7 27-618): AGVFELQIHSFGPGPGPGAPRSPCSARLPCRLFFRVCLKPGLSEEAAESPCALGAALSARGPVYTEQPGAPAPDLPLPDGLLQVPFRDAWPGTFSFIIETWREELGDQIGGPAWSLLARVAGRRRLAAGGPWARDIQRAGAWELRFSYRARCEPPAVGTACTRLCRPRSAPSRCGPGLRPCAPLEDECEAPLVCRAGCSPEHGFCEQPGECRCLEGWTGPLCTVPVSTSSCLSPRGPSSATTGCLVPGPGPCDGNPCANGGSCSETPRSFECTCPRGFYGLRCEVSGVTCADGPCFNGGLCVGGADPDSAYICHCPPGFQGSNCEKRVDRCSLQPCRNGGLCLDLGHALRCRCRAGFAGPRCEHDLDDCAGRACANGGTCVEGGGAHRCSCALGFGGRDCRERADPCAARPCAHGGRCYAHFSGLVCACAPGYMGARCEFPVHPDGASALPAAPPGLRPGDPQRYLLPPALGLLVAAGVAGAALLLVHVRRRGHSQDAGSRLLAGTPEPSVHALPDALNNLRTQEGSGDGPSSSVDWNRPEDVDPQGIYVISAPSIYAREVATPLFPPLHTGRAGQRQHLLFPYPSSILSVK

Top MFI [1]: 92 MFI | Top MFI [2]: 104 MFI
Substance: Negative control antibody
